Measurements reported in patent publication US20210155699A1.
Residue numbers refer to the chain shown, from its start. Names may count otherwise.

B1: 2F8-HG-F273L (antibody, part only; not given: anti-EGFr VH and light chain, part only)
heavy, part: ASTKGPSVFPLAPCSRSTSESTAALGCLVKDYFPEPVTVSWNSGALTSGVHTFPAVLQSSGLYSLSSVVTVPSSSLGTKTYTCNVDHKPSNTKVDKRVAPEFLGGPSVFLFPPKPKDTLMISRTPEVTCVVVDVSQEDPEVQFNWYVDGVEVHNAKTKPREEQFNSTYRVVSVLTVLHQDWLNGKEYKCKVSNKGLPSSIEKTISKAKGQPREPQVYTLPPSQEEMTKNQVSLTCLVKGFYPSDIAVEWESNGQPENNYKTTPPVLDSDGSFLLYSRLTVDKSRWQEGNVFSCSVMHEALHNHYTQKSLSLSLGK
B2: 2F8-HG-F273A (antibody, part only; not given: anti-EGFr VH and light chain, part only)
heavy, part: B1 heavy, part with L273A

How the values were obtained:
purified EGFr (Sigma) = purified EGFr (Sigma) (UniProt P00533); assay: ELISA on coated purified EGFr (50 ng/well), without and with polyclonal human IgG (IVIG), both curves in the same bundle
EGFr in A431 cells = EGFr in A431 cells (UniProt P00533)
2F8-HG-L236V = assay: non-covalent nano-ESI MS, 0.01-10 uM; self-dimerisation (FIG. 6)
2F8-HG-Y275A = assay: as above
2F8-HG-F273A = assay: as above

| Molecule | EC50 (read off the curve) (purified EGFr (Sigma)) [µg/mL] | further results |
| --- | --- | --- |
| 2F8-HG-R277A (antibody) | 0.08 | IC50 (read off the curve) (EGFr in A431 cells): 3 nM |
| 2F8-HG-L236V (antibody) |  | percent monomeric at low concentrations (2F8-HG-L236V): 100% |
| 2F8-HG-R277K (antibody) | 0.08 |  |
| 2F8-HG-Y275A (antibody) |  | percent monomeric at low concentrations (2F8-HG-Y275A): 100% |
| B1 | 0.08 |  |
| B2 | 0.08 | percent monomeric at low concentrations (2F8-HG-F273A): 100% |
